Experimental data as given in patent publication US9938503B2, “Differentiation of human iPS cells to human alveolar type II via definitive endoderm” (YALE UNIVERSITY, priority 2012, dated 2018).

Tests used:
iPSC-AETII cells = assay: Differentiation of iPSC-derived AETII cells to AETI cells with IWR-1; assay type: cell-based, human
Description: Differentiated cells at day 22 were then maintained in DMEM medium with 10% FBS, 2 mM L-glutamine, 1 mM nonessential amino acids, 1% antibiotic-antimycotic and […] IWR-1 for 7 days.
(§1) For flow cytometry, cells were dissociated into single-cell suspensions by incubation with 0.25% trypsin for 2 min, and fixed (Fixation/Permeabilization kit, BD Biosciences). After blocking for 30 min on ice, the cells were incubated with primary antibody in blocking solution for 30 min on ice. The cells were resuspended in 350 μl of Perm/Wash buffer after incubation with conjugated secondaries for 30 min on ice, washed twice, and analyzed by flow cytometry. See Table 1 for antibody information.
(§2) Total RNA was extracted using the RNeasy Mini Kit from Qiagen, following the manufacturer's instructions. First-strand complementary DNA (cDNA) was synthesized with random hexamers as primers, using SuperScript First-Strand Synthesis System according to manufacturer's protocol (Invitrogen). Each sample was run in triplicate with iQ™ SYBR Green Supermix (Bio-Rad). PCR conditions included an initial denaturation step of 4 min at 95° C., followed by 40 cycles of PCR consisting of 15s at 95° C., 30 s at 60° C., and 30 s at 72° C. Average threshold cycle (Ct) values from the triplicate PCR reactions for a gene of interest (GOI) were normalized against average GAPDH Ct values from the same cDNA sample. Fold change of GOI transcript levels between sample A and sample B equals 2^−ΔΔCt, where ΔCt=Ct(GOI)−Ct(GAPDH), and ΔΔCt=ΔCt(A)−ΔCt(B).

iPSC-derived DE cells = assay: Extracellular matrix protein effects on DE cell adhesion and differentiation; assay type: cell-based, human; settings: ECM-coated plates, media with NOGGIN/SB-431542
Description: (§3) DE generated by exposure to activin A were trypsinized, reseeded at a ratio of 1:1-2 on human ECM protein-coated plates and differentiated to anterior foregut endoderm with IMDM+5% FBS, 2 mM L-glutamine, 1 mM nonessential amino acids, 1% antibiotic-antimycotic supplemented with 200 ng/ml NOGGIN and […] SB-431542 for 2 days (Longmire T A, et al. 2012. Cell Stem Cell 10(4):398-411, Green M D, et al. 2011. Nat Biotechnol 29(3):267-272).
as §2, with “ΔΔCt=ΔCt(A)−ΔCt(B). […]” for “ΔΔCt=ΔCt(A)−ΔCt(B).”

[1] = tested on: iPSC-derived definitive endoderm cells; assay: Differentiation of definitive endoderm to anterior foregut endoderm with NOGGIN/SB-431542, flow cytometry; assay type: cell-based, human
Description: as §3, §1

[2] = tested on: human iPS cells (C1 and C2 clones); assay: Differentiation of iPS cells to definitive endoderm with activin A, flow cytometry; assay type: cell-based; settings: for endodermal cells based on dual expression of SOX17 and FOXA2: day 6
Description: Human iPSCs were differentiated to alveolar epithelium in a directed differentiation protocol via definitive endoderm (DE) and anterior foregut endoderm (AFE). iPS cells were differentiated towards definitive endoderm under conditions described previously (Duan Y, et al. 2010. Stem Cells 28(4):674-686, Kubo A, et al. 2004. Development. 131(7):1651-1662). Briefly, h-iPSC were cultured in RPMI 1640 medium supplemented with 100 ng/ml activin A, 2 mM L-glutamine and 1% antibiotic-antimycotic for 48 hours; 1xB27 supplement, 0.5 mM sodium butyrate and 0.1% FBS were added into the same medium and the cells were cultured for another 4 days, with daily medium changes (D'Amour K A, et al. 2005. Nat Biotechnol 23(12):1534-1541).
as §1

[3] = 100 mM IWR-1 for 7 days from day 22, flow cytometry, C1 clone
[4] = continuous activin A from day 6 to day 8 without NOGGIN/SB-431542
[5] = C1 clone, day 6, 100 ng/ml activin A, flow cytometry
[6] = C2 clone, day 6, 100 ng/ml activin A, flow cytometry

## O=C(Nc1cccc2cccnc12)c1ccc(N2C(=O)[C@@H]3[C@H](C2=O)[C@@H]2C=C[C@H]3C2)cc1 [IWR-1]
iPSC-AETII cells; [3]
  cells expressing T1α: ≤ 88%
  cells positive for aquaporin-5 (AQ5): up to 92%
  cells positive for caveolin-1: ≤ 98%
iPSC-AETII cells; AETII exposed to Wnt/β-catenin inhibitor
  AETI cells positive for the type I markers T1α and caveolin-1: more than 90%
iPSC-AETII cells; IWR-1 treated versus untreated AETII
  AETI markers AQ5, T1α and caveolin-1 by immunostaining: significant increase
iPSC-AETII cells; after IWR-1, flow cytometry
  AETII cell marker SPC: decreased significantly
iPSC-AETII cells; iPSC-AETII cells exposed to IWR-1 versus freshly isolated human primary alveolar type I cells
  expression of type I cell markers by quantitative RT-PCR: comparable to expression levels of freshly isolated human primary alveolar type I cells

## Fibronectin
iPSC-derived DE cells
  DE cell attachment: attach well

## laminin
iPSC-derived DE cells
  DE cell attachment: attach well

B1: activin A: soluble cytokine activating the nodal receptor, used at 100 ng/ml to induce definitive endoderm (protein, UniProt P08476 311-426, looked up)
Inhibin beta A chain: GLECDGKVNICCKKQFFVSFKDIGWNDWIIAPSGYHANYCEGECPSHIAGTSGSSLSFHSTVINHYRMRGHSPFANLKSCCVPTKLRPMSMLYYDDGQNIIKKDIQNMIVEECGCS
modifications: Inhibin beta A chain
[1]; activin A induced cells without NOGGIN/SB-431542, day 13
  cells positive for NKX2.1: < 1%
[1]; [4]
  FOXA2+/SOX2+ cells: rare
  NKX2.1+ cells: few
[2]; C1 clone
  endodermal cells based on dual expression of SOX17 and FOXA2: more than 85%
[2]; [5]
  percentage of cells expressing CXCR4: 92.71±4.0%
  percentage of cells expressing FOXA2: 87.66±1.2%
[2]; C2 clone
  endodermal cells based on dual expression of SOX17 and FOXA2: > 89%
[2]; [6]
  percentage of cells expressing CXCR4: 87.23±2.0%
  percentage of cells expressing FOXA2: 83.54±1.8%
  percentage of cells expressing SOX17: 91.42±3.0%
